The text below walks through data of publication PMC12671168, “The signal peptide of staphylococcal protein A alters the multimeric states of PepV” (Microbiology Spectrum, 2025).

Broadly, the stoichiometry N is the number of molecules, sites or subunits per partner or assembly.

Values joined by “and” are separate entries in the source; they are usually repeats but may differ in a detail not shown here. Equal values may be shown once. Peptide text beside a SMILES is read from it.

Data set [1] has as its target PepV (Staphylococcus aureus), recombinant His-PepV (Staphylococcus aureus). The experiment in a line: native gel or EMSA; purified proteins, alone or mixed with peptide or precursor (0.5 µM PepV, 10-fold molar excess or rising concentrations of SpA SP); NativePAGE 4%-16% gel, 5 mA, 4°C, silver stain. A general note: Mobility shift assays separate free from complexed probe on a gel.

For data set [2] the target is unchanged. The experiment in a line: SEC; purified PepV alone or incubated with a 10-fold molar excess of peptide; Agilent SEC-3 or TSKgel Super2000 on HPLC; 0.5 M HEPES pH 7.6, 150 mM NaCl; 0.35 mL/min; absorbance at 280 nm. (Size exclusion chromatography separates by hydrodynamic size, large species first.)
For data set [3], the target named is T1, PepV (staphylococcal PepV) (Staphylococcus aureus, UniProt Q5HF23).
T1 construct: gene SACOL1801; His-tagged (pSY273, pET16b-H6-pepV), E. coli BL21(DE3), Ni-NTA; dimer, tetramer and higher oligomers
T1 sequence (Q5HF23 1-469): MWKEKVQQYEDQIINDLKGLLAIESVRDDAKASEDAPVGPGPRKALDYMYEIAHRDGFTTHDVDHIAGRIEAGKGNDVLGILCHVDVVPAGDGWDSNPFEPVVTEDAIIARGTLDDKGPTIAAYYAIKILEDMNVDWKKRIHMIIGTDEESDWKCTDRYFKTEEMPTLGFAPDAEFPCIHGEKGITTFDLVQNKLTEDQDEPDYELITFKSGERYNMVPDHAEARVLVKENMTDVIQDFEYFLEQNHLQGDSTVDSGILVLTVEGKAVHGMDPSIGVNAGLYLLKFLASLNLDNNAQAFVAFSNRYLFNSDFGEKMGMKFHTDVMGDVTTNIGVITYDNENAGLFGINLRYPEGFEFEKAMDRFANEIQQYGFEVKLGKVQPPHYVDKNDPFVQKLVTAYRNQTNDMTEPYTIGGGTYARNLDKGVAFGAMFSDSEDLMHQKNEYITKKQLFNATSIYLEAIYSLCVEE
In words: Cd-ninhydrin colorimetric dipeptidase assay, […] nm. Type of data set: biochemical. As to conditions: 25 mM Tris pH 7.5, 2 mM MnCl2, 5 mM TCEP, 37 °C.

For the next data set, the target named is T2, PepVEpi (Staphylococcus epidermidis, UniProt Q5HNF9).
T2 construct: gene SERP1310; purified ortholog, probably His-tagged from E. coli BL21(DE3); multimers beyond dimer
T2 sequence (Q5HNF9 1-469): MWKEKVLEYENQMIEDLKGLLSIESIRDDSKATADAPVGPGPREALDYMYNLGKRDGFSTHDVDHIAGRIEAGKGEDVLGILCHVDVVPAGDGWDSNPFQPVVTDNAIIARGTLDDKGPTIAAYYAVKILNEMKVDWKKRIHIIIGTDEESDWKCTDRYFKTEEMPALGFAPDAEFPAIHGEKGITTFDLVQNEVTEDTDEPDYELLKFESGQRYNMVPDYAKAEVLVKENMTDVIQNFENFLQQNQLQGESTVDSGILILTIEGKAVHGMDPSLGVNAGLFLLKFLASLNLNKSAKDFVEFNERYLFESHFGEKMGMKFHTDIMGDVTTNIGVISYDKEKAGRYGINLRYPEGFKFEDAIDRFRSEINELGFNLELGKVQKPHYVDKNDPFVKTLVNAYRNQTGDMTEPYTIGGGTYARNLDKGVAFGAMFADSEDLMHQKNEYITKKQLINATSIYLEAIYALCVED
The experiment in a line: Cd-ninhydrin colorimetric dipeptidase assay, […] nm. It is filed as biochemical. As to conditions: 25 mM Tris pH 7.5, 2 mM MnCl2, 5 mM TCEP, 37 °C.

A further data set addresses T3, PepVSpn (Streptococcus pneumoniae, UniProt A0A0H2UP69).
T3 construct: gene pepV; purified ortholog, probably His-tagged from E. coli BL21(DE3); dimer only
T3 sequence (A0A0H2UP69 1-466): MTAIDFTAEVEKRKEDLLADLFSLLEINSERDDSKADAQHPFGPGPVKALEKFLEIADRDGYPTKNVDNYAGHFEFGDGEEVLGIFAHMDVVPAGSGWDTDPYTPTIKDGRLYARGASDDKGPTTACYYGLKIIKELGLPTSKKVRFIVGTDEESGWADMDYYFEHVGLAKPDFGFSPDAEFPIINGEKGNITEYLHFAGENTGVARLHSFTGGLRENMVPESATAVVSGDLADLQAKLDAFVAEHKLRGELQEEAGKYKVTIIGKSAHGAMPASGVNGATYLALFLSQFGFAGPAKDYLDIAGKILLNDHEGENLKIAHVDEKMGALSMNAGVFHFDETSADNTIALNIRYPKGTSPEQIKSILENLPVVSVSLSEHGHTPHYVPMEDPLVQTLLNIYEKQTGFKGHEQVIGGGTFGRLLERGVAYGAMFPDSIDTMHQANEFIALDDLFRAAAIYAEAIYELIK
The experiment in a line: Cd-ninhydrin colorimetric dipeptidase assay, […] nm. As to conditions: 25 mM Tris pH 7.5, 2 mM MnCl2, 5 mM TCEP, 37 °C. Type of data set: biochemical.

The target of another data set is T4, PepVBsub (Bacillus subtilis, UniProt O34944).
T4 construct: gene ytjP; purified ortholog, probably His-tagged from E. coli BL21(DE3); multimers beyond dimer
T4 sequence (O34944 1-463): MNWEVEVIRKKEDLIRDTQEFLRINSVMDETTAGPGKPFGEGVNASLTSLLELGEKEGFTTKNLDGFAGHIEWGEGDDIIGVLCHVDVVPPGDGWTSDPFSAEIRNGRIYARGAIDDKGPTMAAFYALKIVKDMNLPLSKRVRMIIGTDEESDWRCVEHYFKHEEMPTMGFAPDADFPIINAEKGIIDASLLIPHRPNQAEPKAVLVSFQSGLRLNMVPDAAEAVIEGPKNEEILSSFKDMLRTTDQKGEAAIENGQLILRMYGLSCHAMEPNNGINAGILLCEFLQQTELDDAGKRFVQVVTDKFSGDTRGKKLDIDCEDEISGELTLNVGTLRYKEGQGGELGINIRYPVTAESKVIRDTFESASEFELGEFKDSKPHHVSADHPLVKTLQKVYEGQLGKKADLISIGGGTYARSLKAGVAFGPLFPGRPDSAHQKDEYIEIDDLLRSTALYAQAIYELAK
In words: Cd-ninhydrin colorimetric dipeptidase assay, […] nm. Type of data set: biochemical. As to conditions: 25 mM Tris pH 7.5, 2 mM MnCl2, 5 mM TCEP, 37 °C.

Data set [4] concerns the molecule itself. In words: native gel or EMSA; purified proteins, alone or mixed with peptide or precursor (0.5 µM PepV, 10-fold molar excess or rising concentrations of SpA SP); NativePAGE 4%-16% gel, 5 mA, 4°C, silver stain.

Turning to “SpA SP (signal peptide of staphylococcal protein A)”, in data set [1], the concentration of SpA SP at which the tetrameric and oligomeric PepV species diminish was 300 nM.
Consider “PepV (Staphylococcus aureus), recombinant His-PepV (enzyme)”, for which the stoichiometry N is 2 and 4 in data set [2]; 2 and 4 in data set [1].
As to `C[C@H](N)C(=O)N[C@@H](C)C(=O)O` [Ala-Ala] (H-Ala-Ala-OH), the “Cd-ninhydrin colorimetric dipeptidase assay, 507 nm” value in data set [3] is recorded as “we assessed the enzymatic activity of PepV in the presence of the SpA SP”; at PepVEpi, “performed a colorimetric ninhydrin dipeptidase assay using Ala-Ala as the substrate”; on PepVSpn it was “performed a colorimetric ninhydrin dipeptidase assay using Ala-Ala as the substrate”; at PepVBsub, “performed a colorimetric ninhydrin dipeptidase assay using Ala-Ala as the substrate”.

B1: E. coli PepT (enzyme, Escherichia coli, UniProt P29745 1-408, looked up)
chain: MDKLLERFLNYVSLDTQSKAGVRQVPSTEGQWKLLHLLKEQLEEMGLINVTLSEKGTLMATLPANVPGDIPAIGFISHVDTSPDCSGKNVNPQIVENYRGGDIALGIGDEVLSPVMFPVLHQLLGQTLITTDGKTLLGADDKAGIAEIMTALAVLQQKKIPHGDIRVAFTPDEEVGKGAKHFDVDAFDARWAYTVDGGGVGELEFENFNAASVNIKIVGNNVHPGTAKGVMVNALSLAARIHAEVPADESPEMTEGYEGFYHLASMKGTVERADMHYIIRDFDRKQFEARKRKMMEIAKKVGKGLHPDCYIELVIEDSYYNMREKVVEHPHILDIAQQAMRDCDIEPELKPIRGGTDGAQLSFMGLPCPNLFTGGYNYHGKHEFVTLEGMEKAVQVIVRIAELTAQRK
notes: PepT of Escherichia coli, found with Foldseek as a protein structurally similar to PepV; The methods speak of recombinant His-tagged proteins from E. coli BL21(DE3); the construct of PepT is not described; also called Esherichia coli PepT; source: purified
For the molecule B1, the “stoichiometry N” value in data set [4] is 4.
